In the supplement of paper PMC9732359:
± gives the uncertainty stated by the source.

Test: protein stability index of a GFP-peptide fusion (yeast GPS) (PSI 1-4); higher = more stable; sorted into four equal gates, so the index is relative within each strain
How it was run: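 Yeast carrying a pooled library were grown to mid-log phase in leucine-free medium. Each library plasmid expresses Cherry and has a tiled 17-residue yeast protein peptide fused downstream of GFP. Cells were sorted into four equal gates by GFP/Cherry ratio, and plasmids from each gate were PCR-amplified, Illumina-sequenced and assigned to strains by barcode. Summing, across gates, the read frequency times the gate number gave each peptide's protein stability index.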

Sequence	protein stability index (doa10∆)	protein stability index (pdr5∆)	protein stability index (san1∆)	protein stability index (ubr1∆)
GSNYNPYFPGGSIAMAR [CYT1]	2.08 ± 0.082	2.4 ± 0.13	2.59 ± 0.093	2.35 ± 0.048
GSPKSATSKTSEMLAKY [CDC53]	2.67 ± 0.075	2.48 ± 0.072	1.83 ± 0.1	3 ± 0.045
GSPQMLANEERLSNEMH [RGR1]	2.9 ± 0.074	2.95 ± 0.071	3.39 ± 0.051	2.93 ± 0.054
GSTTIEKKNDENSTSNS [YLR335W/NUP2]	3.1 ± 0.085	3.18 ± 0.097	3.18 ± 0.06	3.17 ± 0.044
GSVMSASVEIVFHDPDH [SMC3]	2.12 ± 0.091	2.53 ± 0.071	2.4 ± 0.084	2.55 ± 0.061
GSYNAFEPASRLQGIKL [COR1]	2.95 ± 0.053	3.16 ± 0.068	3.15 ± 0.063	2.99 ± 0.073
GTGKSQSGSNSGNNSKK [ROX3]	3.37 ± 0.3		2.77 ± 0.2	
GTHNMYKEIRDVSRVAA [RPL20A]	1.96 ± 0.089	2.22 ± 0.14	2.03 ± 0.1	2.29 ± 0.083
GTKSNEKKDSGSSKPAF [YJL041W/NSP1]	3.21 ± 0.063	3.45 ± 0.072	3.42 ± 0.046	3.25 ± 0.069
GTNPLSSDGAYTEQFQH [SSN2]	3.23 ± 0.093	3.09 ± 0.075	2.96 ± 0.055	3.06 ± 0.062
GTPKTDSFIFDGTAKEV [MED4]	2.32 ± 0.041	2.43 ± 0.046	2.58 ± 0.071	2.65 ± 0.045
GTPPMLHQRTHKQVYPL [DSN1]	2.52 ± 0.1	2.87 ± 0.069	2.77 ± 0.071	2.93 ± 0.056
GVEEVEGEYELTEAVED [RPL5]	3.36 ± 0.11	3.45 ± 0.13	3.24 ± 0.14	3.24 ± 0.2
GVERLIPVGDNTVVGIS [PRE4]	2.96 ± 0.089	2.91 ± 0.081	2.84 ± 0.064	2.69 ± 0.086
GVEYRLRLRISRKRNEE [RPL31A]	1.5 ± 0.12	1.26 ± 0.12		1.18 ± 0.22
GVILMFAAILVLLVLPF [COB]	2.69 ± 0.062	1.34 ± 0.05	1.25 ± 0.065	1.14 ± 0.046
GVRSNHLRSNILKDLIY [SMC1]	2.47 ± 0.28	2.35 ± 0.16		2.82 ± 0.13
GVSISVSFNSKQNEQLH [SMC3]	1.87 ± 0.064	2.01 ± 0.065	2.7 ± 0.13	2.35 ± 0.11
GVSRQIAASAFLSLLNL [REC8]	1.5 ± 0.047	1.31 ± 0.045	1.17 ± 0.14	1.23 ± 0.038
GWDSLASRNVWSFYNGN [SNU114]	2.99 ± 0.12	3.12 ± 0.077	3.48 ± 0.05	3.22 ± 0.066
GWWGHMGGPKQKGITSY [QCR8]	3.16 ± 0.072	2.13 ± 0.08	1.41 ± 0.14	1.67 ± 0.075
GYDKKKNKPELYQIDYL [PRE1]	3.04 ± 0.086	2.91 ± 0.098	3.02 ± 0.066	3.08 ± 0.09
GYKSTVKSLRQGKSKLI [RPL30]	1.31 ± 0.08	1.35 ± 0.059	1.4 ± 0.2	1.48 ± 0.061
GYVIKVFNNGIVVLVPK [DIS3]	2.59 ± 0.092	2.38 ± 0.079	2.39 ± 0.077	2.82 ± 0.067
HASENISLSFSRPASYG [SIR4]	2.53 ± 0.064	2.53 ± 0.044	2.74 ± 0.049	3.19 ± 0.045

Sequence	protein stability index (doa10∆)	protein stability index (pdr5∆)	protein stability index (san1∆)	protein stability index (ubr1∆)
HAYNITFNNQDKGLLPY [RPO31]	2.64 ± 0.09	3.09 ± 0.2	1.76 ± 0.098	2.91 ± 0.057
HDIAYSKDGLPNKVKTE [RRP6]	2.74 ± 0.14	2.51 ± 0.23	2.85 ± 0.18	3.2 ± 0.29
HDTLNNEIANSIIQSKQ [BRR2]	2.76 ± 0.051	2.95 ± 0.064	2.88 ± 0.058	2.88 ± 0.052
HECRLRDMTYSAPIYVD [RET1]	2.04 ± 0.087	1.67 ± 0.099	2.01 ± 0.21	1.91 ± 0.061
HENYIQDDDFPLDDAGT [MCD1]	2.95 ± 0.054	2.98 ± 0.051	2.99 ± 0.041	3 ± 0.046
HEVQYQESSSTLSTHST [SIN4]	2.68 ± 0.037	2.78 ± 0.036	2.87 ± 0.041	2.83 ± 0.032
HFAWLPTHIWNAKRSHM [POP1]	1.99 ± 0.033	1.67 ± 0.035	1.45 ± 0.059	1.5 ± 0.026
HFFQIDGFNKTFHDELN [YML103C/NUP188]	1.67 ± 0.07	2.04 ± 0.12	2.67 ± 0.14	2.85 ± 0.091
HFLQFSELAGDEELEAE [PRP8]	3.33 ± 0.15	3.11 ± 0.27		
HFRAPSRILYKAIRGMV [RPL16B]	2.19 ± 0.096	2.67 ± 0.059	2.14 ± 0.1	2.21 ± 0.062
HGKASRQQYYSGVQVGG [SNF6]	2.43 ± 0.061	2.8 ± 0.063	2.61 ± 0.052	2.21 ± 0.05
HGVSFKKRAPRAVKEIK [RPL31A]		2.73 ± 0.14	2.97 ± 0.17	3.2 ± 0.11
HHWLLDKLSGCYAPRPS [RPS4A]	2.21 ± 0.063	1.94 ± 0.062	1.89 ± 0.083	1.42 ± 0.045
HHYNPKTKKLNLSAFKI [BRR2]	2.21 ± 0.062	2.4 ± 0.05	2.4 ± 0.055	2.4 ± 0.042
HIHDLEKFSPKSFISKL [SRP54]	1.81 ± 0.044	2.12 ± 0.042	2.14 ± 0.064	2.36 ± 0.028
HIHKHVKDEAFDDLLKP [RET1]	3.12 ± 0.11	3.4 ± 0.12	3.25 ± 0.073	3.11 ± 0.15
HIKEASEEVDDLSMVPK [SNF2]	3.27 ± 0.11	3.24 ± 0.25	3.13 ± 0.1	3.6 ± 0.16
HIPICVTFSFFNPQDTE [RRP45]	1.56 ± 0.048	1.61 ± 0.06	1.28 ± 0.1	1.58 ± 0.046
HIQGFPTLGERLDNLQD [DSN1]	3.34 ± 0.11	3.39 ± 0.11	3.16 ± 0.046	3.05 ± 0.073
HKKIKVAQPDSLRETNT [SIR2]	3.33 ± 0.13	3.25 ± 0.11	2.6 ± 0.092	3.2 ± 0.053
HKQIHTTIFVKSTTPYV [POP7]	2.15 ± 0.045	2.31 ± 0.05	2.15 ± 0.062	1.82 ± 0.03
HKTFLVANVKDLETLTM [RPL32]		3.39 ± 0.26	3.22 ± 0.09	2.83 ± 0.17
HKVTQKKDIKIGTNDLF [SIR4]	2.63 ± 0.12	2.61 ± 0.11	2.7 ± 0.072	2.27 ± 0.13
HLAICLDIINPGSVEEV [YDL116W/NUP84]	2.66 ± 0.098	2.77 ± 0.089	2.46 ± 0.13	3.45 ± 0.088
